This passage reports Maximum reaction rate (%) results from patent publication US20120129768A1.

The target of the assay is Glucagon-like peptide-1 receptor (GLP1R). Kind of assay: cell-based or functional assay.

Liraglutide (peptide), sequence (peptide): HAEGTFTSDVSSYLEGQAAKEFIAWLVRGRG

Liraglutide (peptide): the Maximum reaction rate (%) amounted to 96.8%.
